Reference: patent US20240052061A1 (published 2024)
Positions count from the first letter of the chain named.

T1: human ecto-nucleoside triphosphate diphosphohydrolase-3 (NTPDase3) (human, UniProt O75355 1-529)
T1 chain: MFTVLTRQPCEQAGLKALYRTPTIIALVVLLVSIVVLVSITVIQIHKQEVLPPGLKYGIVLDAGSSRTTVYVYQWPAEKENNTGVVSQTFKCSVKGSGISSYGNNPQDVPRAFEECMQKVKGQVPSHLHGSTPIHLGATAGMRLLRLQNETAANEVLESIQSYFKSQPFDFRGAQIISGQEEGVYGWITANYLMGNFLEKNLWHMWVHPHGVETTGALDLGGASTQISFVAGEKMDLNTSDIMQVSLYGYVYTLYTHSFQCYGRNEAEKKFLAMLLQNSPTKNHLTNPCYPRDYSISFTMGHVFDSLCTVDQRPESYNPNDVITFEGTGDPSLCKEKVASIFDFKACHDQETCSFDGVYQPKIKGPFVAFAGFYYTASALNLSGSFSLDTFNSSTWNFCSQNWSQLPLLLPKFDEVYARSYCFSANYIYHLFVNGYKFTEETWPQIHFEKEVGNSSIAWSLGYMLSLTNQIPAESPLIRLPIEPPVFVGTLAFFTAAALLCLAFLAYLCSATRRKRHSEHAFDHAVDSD

B1: 3E9 Hu/Ra (antibody, V domains shown)
VH: QSLEESGGDLVKPGASLTLTCTASGFSFSSSDWICWVRQAPGKGLEWIACIYAGSIGGAYFASWVNGRFTISRASSTTVTLQMTSLTAADTATYFCARSSSNGRLKLDQFDLWGPGTLVTVSS
VL: AYDMTQTPASVEVAVGGTVTINCQASQSIGGWLSWYRQKPGQPPSLLIYKASTLASGVSSRFSGTGSRTHFTLTINGVQCADAATYYCQQGSAADVANTFGGGTEVVVKG
B2: 37H1 Hu/Ra (antibody, V domains shown)
VH: QSVEESGGRLVTPGTPLTLTCTVSGFSLSSYAVGWVRQAPGKGLEFIGIITYNGATYYASWAEGRFPISKTSSTTVDLKMTSPTTEDTATYFCARARYGGYSTNSYYLNIWGPGTLVTVSS
VL: DVVMTQTPASVSAAVGGTVTINCQASENIYRILAWYQQKPGQRPKLLIYGASNLETGVPSRFKGSGSGTEYTLTISDLECDDAATYYCQGVLWNSNDSTFGGGTEVVVKG
B3: 42D8 Hu/Ra (antibody, V domains shown)
VH: B2 VH with V33M, G54S, A55N, S60N, E63K
VL: B2 VL with R43P, W93Y
B4: PBI #30af8 hIgG1 (antibody, V domains shown)
VH: QVQLQESGGGLIQPGGSLRLSCAASGFQSDSSDYAMSWVRQAPGKGLEWVSSISGTGGSTYYADSVKGRFTISRDNSKNTLYVQMTSLTAEDTAVYYCAKVVGFSTYDYYYHYALDVWGQGTTVTVSS
VL: QPVLTQPPSASGTPGQRVTISCSGSSSNIGSNTVNWYQQLPGTAPKLLIYSDDQRPSGVPDRFSGSKSGTSASLTISGLKTEDEAGYYCQSYDTSNVVFGGGTKVTVL
B5: PBI #30af7 hIgG4 (antibody, V domains shown)
VH: B4 VH with Q28T, S29T, D30S, T56S, V101D, F104Y
VL: B4 VL with I29V, D52N, D53N
B6: PBI #30af4 hIgG4 (antibody, V domains shown)
VH: B4 VH with Q28T, D30S, T56S, G58V, F104Y, T106V
VL: B4 VL with D53N, Y92D
B7: PBI #30af7 hIgG1 (antibody, V domains shown)
VH: B4 VH with Q28T, S29T, D30S, T56S, V101D, F104Y
VL: B4 VL with I29V, D52N, D53N
B8: PBI #30af8 hIgG4 (antibody, V domains shown)
VH: B4 VH
VL: B4 VL
B9: PBI #30af6 hIgG4 (antibody, V domains shown)
VH: B4 VH with Q28T, D30S, T56S, V102F, F104Y, T106M
VL: B4 VL with V18I, D52N, D53N, Y92D
B10: PBI #30af6 hIgG1 (antibody, V domains shown)
VH: B4 VH with Q28T, D30S, T56S, V102F, F104Y, T106M
VL: B4 VL with V18I, D52N, D53N, Y92D
B11: PBI #30af4 hIgG1 (antibody, V domains shown)
VH: B4 VH with Q28T, D30S, T56S, G58V, F104Y, T106V
VL: B4 VL with D53N, Y92D

Target: T1, human ecto-nucleoside triphosphate …
Test: flow cytometry; COS7-hENTPD3 cells

| Kd [nM] | Binder |
| --- | --- |
| 0.63 | B1 |
| 0.54 | B2 |
| 0.64 | B3 |

Target: T1, human ecto-nucleoside triphosphate …
Test: flow cytometry; CHO-hENTPD3 cells

| Kd [nM] | Binder |
| --- | --- |
| 1.8 | B4 |
| 2.61 | B5 |
| 1.82 | B6 |
| 1.87 | B7 |
| 1.9 | B8 |
| 2.18 | B9 |
| 1.85 | B10 |
| 1.62 | B11 |

Target: T1, human ecto-nucleoside triphosphate …
Test: flow cytometry; RT4 cells

| Kd [nM] | Binder |
| --- | --- |
| 0.16 | B2 |

Target: T1, human ecto-nucleoside triphosphate …
Test: flow cytometry; COS7-hENTPD3 cells
Remark: another data set of the same source

| Kd [nM] | Binder |
| --- | --- |
| 1.26 | B4 |
| 2.83 | B5 |
| 1.28 | B6 |
| 1.68 | B7 |
| 1.43 | B8 |
| 1.58 | B9 |
| 1.63 | B10 |
| 1.26 | B11 |

Target: T1, human ecto-nucleoside triphosphate …
Test: flow cytometry; CHO-hENTPD3 cells
Remark: another data set of the same source

| Kd [nM] | Binder |
| --- | --- |
| 1.94 | B1 |
| 2.26 | B2 |
| 1.96 | B3 |

Target: T1, human ecto-nucleoside triphosphate …
Test: flow cytometry; HEK293T-hENTPD3 cells

| Kd [nM] | Binder |
| --- | --- |
| 1.79 | B1 |
| 1.4 | B2 |
| 0.55 | B3 |
